Test results as given in article PMC11509930, “Improving Hydrolytic Activity and Enantioselectivity of Epoxide Hydrolase from Phanerochaete chrysosporium by Directed Evolution” (Molecules, 2024).
Numbering of substitutions follows the chain as printed. In names and notes the source's numbering stands.

B1: PchEHA (epoxide hydrolase) (Phanerodontia chrysosporium; G14A/K291R/Y163H) (protein)
chain: MDASLFKDFKTSRAFNYHYFYSPAKGPRPTLFFLHGNPSVATDWAQIVPHFTSRGYGVLAPDMLGYGDTDKPTDPALYVSSGMCRNLVDLLDHEGLEKVIAIGHDWGCLSVSRLASYYPERVIAYAFLAASFIGPIPPIPFDAFLEYIKQQVGYELYGYWKFHSEPGLDQFVRDHLDTFLSILWPSDPAVWKTRLAPTGALKQSALEGWTAPLAPYITEEFKKHHVEVFNKNGFEAPACYYRIMTSGLQAEDDKQILPERAVPPKDAPVFFGAANKDYICIPALAYATFKRDEWKDHKITIKEYDADHWLILSHADQVSRDLEAWIEGFASGGQ
notes: catalytic triad D105/H308/D277
B2: PchEHA (epoxide hydrolase) (Phanerodontia chrysosporium) (protein)
chain: B1 chain with A14G, H163Y, R291K
notes: as for B1
B3: PchEHA (epoxide hydrolase) (Phanerodontia chrysosporium; E251G/Y163H) (protein)
chain: B1 chain with A14G, E251G, R291K
notes: as for B1
B4: PchEHA (epoxide hydrolase) (Phanerodontia chrysosporium; E251G/G14A/K291R) (protein)
chain: B1 chain with H163Y, E251G
notes: as for B1
B5: PchEHA (epoxide hydrolase) (Phanerodontia chrysosporium; A24T/E251G) (protein)
chain: B1 chain with A14G, A24T, H163Y, E251G, R291K
notes: as for B1
B6: PchEHA (epoxide hydrolase) (Phanerodontia chrysosporium; C108S/G14A/K291R) (protein)
chain: B1 chain with C108S, H163Y
notes: as for B1

substrate: c1ccc([C@@H]2CO2)cc1; assay: purified protein; format: biochemical, Phanerodontia chrysosporium; details: 10-80 mM SO, 37 °C, buffer pH 8.0

Row | Protein | Km | kcat | kcat/Km
1 | B1 | 20.36 ± 1.34 mM | 2480 ± 52.4 s⁻¹ | 122000 M⁻¹ s⁻¹
2 | B2 | 25.75 ± 2.08 mM | 1740 ± 50.8 s⁻¹ | 67500 M⁻¹ s⁻¹
3 | B3 | 14.16 ± 1.19 mM | 2350 ± 52.3 s⁻¹ | 166000 M⁻¹ s⁻¹
4 | B4 | 22.6 ± 1.75 mM | 2250 ± 59 s⁻¹ | 99600 M⁻¹ s⁻¹
5 | B5 | 26.28 ± 3.79 mM | 1660 ± 87.3 s⁻¹ | 63100 M⁻¹ s⁻¹
6 | B6 | 21.71 ± 2.6 mM | 3020 ± 120 s⁻¹ | 139000 M⁻¹ s⁻¹

substrate: c1ccc([C@H]2CO2)cc1; assay: purified protein; format: biochemical, Phanerodontia chrysosporium; details: 10-80 mM SO, 37 °C, buffer pH 8.0

Row | Protein | Km | kcat/Km
7 | B1 | 57.82 ± 7.75 mM | 36000 M⁻¹ s⁻¹
8 | B2 | 39.23 ± 4.49 mM | 34400 M⁻¹ s⁻¹
9 | B3 | 30.39 ± 2.99 mM | 32500 M⁻¹ s⁻¹
10 | B4 | 41.96 ± 2.07 mM | 38300 M⁻¹ s⁻¹
11 | B5 | 43.98 ± 3.94 mM | 25900 M⁻¹ s⁻¹
12 | B6 | 51.04 ± 2.04 mM | 19700 M⁻¹ s⁻¹
